Reference: publication doi:10.1101/2023.03.05.531154

Molecular target: Man5GlcNAc2-enriched CH505.M5.G458Y chimeric SOSIP gp140 Env trimer (HIV-1 (CH505 transmitted/founder virus) | HIV-1)
Assay: BLI

| Substance | Kd [nM] |
| --- | --- |
| CH235.12 Fab | 0.2 |
| CH235 UCA IgG (antibody) | 4.5 |
